test: yeast display, Sf9 membrane polyspecificity reagent, FACS + sequencing; frameworks hold sequencing errors
Procedure, shortened: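 Galactose-induced (36–48 hours) yeast carrying a synthetic nanobody display library were exposed to 10% biotinylated, detergent-solubilized Sf9 membrane reagent at 4 °C for 1 hour. FACS followed streptavidin microbead enrichment, using low and high (top ~1%) gates for expression (anti-HA) and reagent binding (streptavidin). Colony PCR, MiSeq 2 × 250 sequencing and CDR-length filtering followed. Labels for polyreactivity reflect the gate of origin.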

Sequence | polyreactivity (PSR sort gate)
QVQLVESGGGLVQAGGSLRLSCAASGLIFSGYAMGWYRQAPGKDRELVAAITWSGGRTYADSVKGRFTISRDNAKNTVYLQMNSLKPEDTAVYYCNADAYIDYWPYTWDYDYWGQGTQVTVSS | high polyreactivity
QVQLVESGGGLVQAGGSLRLSCAASGITFVRYAMGWYRQAPGKEREFVAAINSIVGRTYYADSVKGRFTISRDNAKNTVYLQMNSLKPEDTAVYYCAADSNVRYGMDYWGQGTQVTVSS | low polyreactivity
QVQLVESGGGLVQAGGSLRLSCAASGSTFGGNAMGWYRQAPGKERELVAVISKRGGSTYYADSVKGRFTISRDYAKNTVYLQMNSLKPEDTAVYYCAATYSRYWSPTYDYWGQGTQVTVSS | high polyreactivity
QVQLVESGGGLVQAGGSLRLSCAASGSTFLDYTMGWYRQAPGKERELVAVISYRAGSTYYADSVKGRFTISRDNAKNTVYLQMNSLKPEDTAVYYCNADYYNYWLRRRYVWYESWGQGTQVTVSS | low polyreactivity
QVQLVESGGGIVQAGGSLRLSCAASGSTFNANGMGWYRQAPGKERELVAAISWRGSTYYADSVKGRFTISRDNAKNTVYLQMNSLKPEDTAVYYCAAYRYSWSYQYRYGYWGQGTQVTVSS | high polyreactivity
QVQLVESGGGLVQAGGSLRLSCAASGLIFRHYAMGWYRQAPGKERELVDAITRSGGSTNYADSVKGRFTISRDNAKNTVYLQMNSLKPEDTAVYYCNAGIRYFVVGRSSYDYWGQGTQVTVSS | low polyreactivity
QVQLVESGGGLVQAGGSLSLSCAASGSIFYSNSMGWYRQAPGKERELVAAINWRGGSTYYADSVKGRFTISRDNAKNSVYLQMNSLKPEDTAVDYCAAVYPVHLRGQYPIPKYNYWGQGTQVTVSS | low polyreactivity
QVQLVESGGGLVQAGGSLRLSCAASGRTFQGNAMGWYRQAPGKERELVAVIDSGTSTDYADSVKGRFTISRDNAKNTVYLQMNSLKPEDTAVYYCAADGALGYNLRYDYWGQGTQVTVSS | low polyreactivity
QVQLVESGGVLVQAGGSLRLSCAASGRIFPGYVMGWYRQAHGKERELVAAITRGGSTYYADSVKGRFTISRDNAKNTVYLQMNSLKPEDTAVYYCAAKHSHIHYNYWGQGTQVTVSS | low polyreactivity
QVQLVESGGGLDQAGGSLRLSCAASGRIFGYYAMGWYRLAPGKERELVAGIRSVGSTNYADSVKGRFTISRDNAKNTVYLQMNSLKPEDTAVNYCASRLWHLSYAGQGGDYWGQGTQVTVSS | low polyreactivity
QVQLEESGGGLVQAGGSLRLSCAASGSIFSPNAMGWYRQAPGKERELVAAISSNGVSTYYADSVKGRFTISRDNAKNTVYLQMNSLKPEDTAVYYCAAVSIGPGEYDYWGQGTQVTVSS | low polyreactivity
QVQLVESGGCLVQAGGSLRLSCAASGSTFTTNAMGWYIQAPGKERELVAAISWSGTTTYYADSVKGRFTISRDNAKNTGYLQMNSLKPEDTAVYYCAAQVVSGTVAYLDFGYWGQGTQVTVSS | low polyreactivity
QVQLVESGGGLVQAGGSLRLSCAASARTFYYNGMGWYIQAPGKERELVAASSGGGSSTSYADSVKGRFTISRDNAKNTVYLQMNSLKPEDTAVYYCAAKYGALRYYKMYYWGQGTQVTVSS | low polyreactivity
QVQLVESGGGLVQAGGSLRLSCAASGSTFQSYAMGWSRPAPGKERELVAAISFSGGSTYYADSVKGRFTISRDHAKNTVYLQMNSLKPEDTAVYYCAADVAYVEYAYWGQGTQVTVSS | low polyreactivity
QVQLVESGGGLVQAGGSLRLSCAASGRTFKKYAMGWYRQAPGKERELVAAITSSGGSTYYADSVKGRFTISRDNAKNTVYLQMNSLKPEDTAVYYCNTVYRHRQRAKYNYWGQGTQVTVSS | high polyreactivity
QVHVVESGGGLVQAGGSLRLSCAASGFTFGNNAIGWYRQAPGKERELVAGISRTGGRTYYADSVKGRFTISRDNAMNTVFLPMNSLKPEDTAVFYCAKAFRGHYWGQGTQVNVSS | high polyreactivity
QVQLVESGGGLVQAGGSLRLSCAASGSIYYTYAMGWYRPAPGKERELVAAISKRGGSTYYADSVKGRFTISRDNAKNSVYLQMNSLKPEDTAVYYCAARYNAPRGGGSDDYWGQGTQVTVSS | high polyreactivity
QVQLVESGGGLVQAGGSLRLSCAASGSIFSTYAMGWYRQAPGKERELVAAISSSGSTYYADSVKGRFTLSRDNAKNTVYLQMNSLKPEDTAVYYCAAGKYRRTSRYRYDSWGQGTQVTVSS | high polyreactivity
QVQLVESGGGLVQAGGSLRLSCAASGSTFVRNVMGWYRQAPGKEREFVAAITRSGGSTYYADSVKGRFTISRDNAKNTVYLQMNSLKPEDTAVYYCIVPPGYRLSQYEYDYWGQGTQVTVSS | low polyreactivity
QVQLEESGGGLVQAGGSLRLSCAASGSTFYKYAMGWSRQAPGKERELVASITWSGTSTYYADSVKGRFTISRDNAKNTVYLQMNSLKPEDTAVYYCNAGLEYYYWGYTWEFDYWGQGTQVTVSS | low polyreactivity
QVQLVESGGGLVQAGGSLRLSCAASGSTFYLYAMGWYRQAPGKERELVAAITYGGGSTYYADSVKGRFTISRDNAKNTVYLQMNSLKPEDTAVYYCAARWLYWPRYTSLVYTHRDSWGQGTQVTVSA | low polyreactivity

Sequence | polyreactivity (PSR sort gate)
QVQLVESGGGLVQAGGSLRLSCAASGSIFASNAMGWYSPAPGKERELVAAINSGDSTNYADSVKGRFTISRDNAKNTVYLQMNSLKPEDTAVYYCARGLEERYDYWGQGTQVTVSS | low polyreactivity
QVQLVESGGGLVQAGGSLRISCAASGSTFDPNVMGWYRQAPGKERELVAVITTTGVSTYYADSVKGRFTISRDNAKNTVYLQMNSLKPEETAVYYCNAKWYWYLTRDDFRYRYTYDYWGQGTQVTVSS | low polyreactivity
QVQLVESGGGLVQAGGSLRLSCAASGIIFYRNTMGWYRQAPGKERELVASISRGGSTYYADSVKGRFTISRDNAKNTVYLPMNTLKPEDTAVYYCSTSGPQDYSRNFDYWGQGTQVTVSS | low polyreactivity
QVQLVESGGGLVQAGGSLRLSCAASGSTFTYYAMGWYRQAPGKERELVAAITSNGGSTFYADSVKGRFTISRDNAKNTVYLQMNSLKPEDTAVYYCAAYRTHGPPRAIRFDYWGQGTQVTVSS | high polyreactivity
QVQLVESGGGLVQAGGSLRLSCAASGRIFAGYPMGWYRQAPGKERELVATFTRGGSTNYADSVKRPFTISRDNAKNSVYLQMNSLKPEDTAVYYCNAAIRRHGGYAHEYWGQGTQVTVSS | low polyreactivity
QVQLVESGGGLVQAGGSLRLRCAASGITFSWYDMGWYRQAPGKERELVAAISWSGGRTYYADSVKGRFTISRDNAKNTVYLQMNSLKPEDTAVYYCNAVGVGYVGYLYGYLGQGTQVTVSS | high polyreactivity
QVQLVESGGGLVQAGGSLRLSCAASGFTFAYYAMGWYRQAPGKERELVASISYNGGITNYADSVKGRFTISRDNAKNTVYLQMNSLKPEDTAVYYCAAGVFFFTFDYWGQGTQVTVSS | low polyreactivity
QGQLVESGGGLVQAGGSLRLSCAASGFIFSKYAMGWYRQAPGKERELVAAISYRTVRTYYADSVKGRFTISRDNAKNTVDLQMNSLKPEDTAVYYCAADSRYWLYDYWGQGTQVTVSS | high polyreactivity
QVQLVESGGGLVQAGGSLRLSCAASGLIFVAYAMGWYRQAPGKERELVAAISRSGGSTYYADSVKGRFTISRDNAKNTVYLQMNRLKPEDTAVYFCAKYYGARHVDDDYWGQGTQVTVSS | high polyreactivity
QVQLVESGGGLVQEGGSLRLSSAASGRTFGTNPMGWYRQAPGKERELVAAISTRDGSTYYADSVKGRFSISRDNAKNTVYLQMNSLKPEDTAVYYCNAVVRYYDWGYLDYDYWGQGTQVTVSS | low polyreactivity
QVQLVESVGGLVQAGGSLRLSGADSGITFGVYAMGWYRQAPGKVRELVAAICVSGGSTYYADSVKGRFTISRDNAKNTVYLHMNSLKPEVTAVYYCAADRYGHFGYWGQGTQVTLSS | high polyreactivity
QVKLVESGGGLVQAGGSLRLSCAASGRIFGYYDMGLYRQAPGKDRELVAAISWNGGSTSYADSVKGRFTISRDNAKNTVYLQMNSLKPEDTAVYYCAAETQYDGYVGSFYYWGQGTQVTVSS | low polyreactivity
QVQLVESGGGLDQAGGSLRLSCAASGFTFDENAMGSYRQAPGINYSGASTYYADSVKGRFTISRDNAKNTVYLQMNSLKPEDTAVYYCAAEVVAQMNYWGQGTQVTVSW | low polyreactivity
QVQLVESGGGLVQAGGSLRLSCAASGYTFRYYAMGWYRQAPGKERELVAAITGSGGSTYYADSVKGRFTISRDNAKNTVYLQMNSLKPEDTAVYYCNTVTTSYKRSGKFDYWGQGTQVTVSS | high polyreactivity
QVQLVESGGGLVQAGGSRRLSCAASGLIFYYYAMGWYRQAPGKERELVAAISGSGGSTYYADSVKGRFTISRDNAKNTVYLQMNSLKPEDTAVYYCNKLSWRKYLGYEYWGQGTQVTVSS | high polyreactivity
QVQLVESGGGLVQAGGSLRLSCAASGRTFRWYAMGWYRPAPAKERELVAAISSRGGSTYYADSVKGRFTISRDNAKNTVFLQMNSLKPEDTAVYYCAAVDNWLTLSDYDYWGQGTQVTVSS | low polyreactivity
QVQLVESGGGLVQAGGSLRLSCAASGIIFSYYVMGWYRQAPGKERELVAAISRSGAITYYADSVKGRFTISRDNAKNTVYLQMNSLKPEDTSVYYCAAELVPYSYHLRLDYWGQGTQVTVSS | high polyreactivity
QVQLVESGGGLVQAGGSLRISCAASGRIFGKNALGRYRQAPGKERDLVAAITGSGGSTYYADSVKGRFTISRDNAKNTVYLQMNSLKPEDTAVYYCATAYAVYHVEYGYWGQGTQVTVSS | low polyreactivity
QVQLVESGGGLVQAGGSLRLSCAASGNTFDIYAMGWYRQAPGKERELVAAISRRGGSTYYADSVKGRFTISRDNAKNTVYLQMNSLKPEDTAVYYCNAKHKITHSSSDYWGQGTQVTVSS | high polyreactivity
QVQLVESGGGLVQAGVRLRLSCAASGIIFRTYAMGWYRRAPGKERELVADITWSDGSTYYADSVKGRFTISRDNAKNTVYLQMNSLKPEDTAVYYCNADVLSDDSWWSYDYWGQGTQVTVSS | high polyreactivity

Reference: the nanobody polyreactivity screen of Harvey et al. (2022)
